Target: SBF (^FLAGSwi4-Swi6 complex) (S. cerevisiae, UniProt P25302 1-1093; P09959 1-803)
Experiment: pull-down

Chain of SBF (^FLAGSwi4-Swi6 complex) (P25302 whole entry, chain 1 of 2): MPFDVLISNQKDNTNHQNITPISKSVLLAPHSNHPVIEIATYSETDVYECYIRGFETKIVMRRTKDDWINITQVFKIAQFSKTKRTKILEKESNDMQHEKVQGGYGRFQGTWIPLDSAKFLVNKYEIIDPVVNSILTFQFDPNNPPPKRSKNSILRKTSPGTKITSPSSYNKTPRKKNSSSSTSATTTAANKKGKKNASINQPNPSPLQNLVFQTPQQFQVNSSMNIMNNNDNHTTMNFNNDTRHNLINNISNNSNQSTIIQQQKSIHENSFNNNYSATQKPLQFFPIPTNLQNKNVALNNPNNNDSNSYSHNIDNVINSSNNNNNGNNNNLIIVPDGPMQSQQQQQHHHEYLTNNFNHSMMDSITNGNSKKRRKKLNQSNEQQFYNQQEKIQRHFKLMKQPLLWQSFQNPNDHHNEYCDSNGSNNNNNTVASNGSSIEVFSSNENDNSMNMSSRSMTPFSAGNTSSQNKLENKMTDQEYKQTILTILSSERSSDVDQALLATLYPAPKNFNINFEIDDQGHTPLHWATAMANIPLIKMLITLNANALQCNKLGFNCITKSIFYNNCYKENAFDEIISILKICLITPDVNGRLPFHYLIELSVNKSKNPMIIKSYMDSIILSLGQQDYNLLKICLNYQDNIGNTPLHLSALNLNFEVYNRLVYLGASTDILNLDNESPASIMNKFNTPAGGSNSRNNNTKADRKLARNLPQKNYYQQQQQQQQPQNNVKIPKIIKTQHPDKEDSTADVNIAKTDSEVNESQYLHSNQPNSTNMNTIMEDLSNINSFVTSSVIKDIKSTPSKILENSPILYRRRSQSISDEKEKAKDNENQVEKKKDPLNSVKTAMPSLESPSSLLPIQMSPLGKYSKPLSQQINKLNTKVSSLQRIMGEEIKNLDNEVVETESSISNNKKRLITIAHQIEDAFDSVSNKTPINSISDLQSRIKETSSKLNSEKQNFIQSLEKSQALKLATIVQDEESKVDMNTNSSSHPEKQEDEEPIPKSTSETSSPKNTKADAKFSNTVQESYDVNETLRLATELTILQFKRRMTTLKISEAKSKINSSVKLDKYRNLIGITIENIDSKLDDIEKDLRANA
Chain of SBF (^FLAGSwi4-Swi6 complex) (P09959 whole entry, chain 2 of 2): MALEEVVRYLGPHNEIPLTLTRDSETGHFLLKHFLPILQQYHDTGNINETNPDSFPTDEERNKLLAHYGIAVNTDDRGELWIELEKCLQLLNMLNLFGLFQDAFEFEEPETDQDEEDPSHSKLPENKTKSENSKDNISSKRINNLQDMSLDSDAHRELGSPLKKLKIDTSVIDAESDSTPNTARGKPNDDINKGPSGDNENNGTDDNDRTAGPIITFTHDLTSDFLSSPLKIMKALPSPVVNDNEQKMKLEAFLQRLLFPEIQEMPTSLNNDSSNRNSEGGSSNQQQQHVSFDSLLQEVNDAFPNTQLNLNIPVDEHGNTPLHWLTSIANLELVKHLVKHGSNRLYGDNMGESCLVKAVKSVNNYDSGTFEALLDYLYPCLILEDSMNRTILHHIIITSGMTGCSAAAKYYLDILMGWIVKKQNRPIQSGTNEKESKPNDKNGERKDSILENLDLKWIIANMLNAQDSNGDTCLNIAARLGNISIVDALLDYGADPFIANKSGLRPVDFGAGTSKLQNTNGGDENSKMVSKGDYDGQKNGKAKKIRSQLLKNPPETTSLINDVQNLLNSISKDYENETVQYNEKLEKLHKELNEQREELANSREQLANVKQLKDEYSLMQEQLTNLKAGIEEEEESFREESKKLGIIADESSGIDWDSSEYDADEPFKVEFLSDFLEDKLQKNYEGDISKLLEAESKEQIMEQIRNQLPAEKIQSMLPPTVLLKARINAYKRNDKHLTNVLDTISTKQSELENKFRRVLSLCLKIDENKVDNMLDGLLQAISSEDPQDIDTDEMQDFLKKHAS

- binding result: binds
B1: ^GSTWhi5 (recombinant) (natural protein, S. cerevisiae, UniProt Q12416 1-295, looked up)
chain: MSLRTPKRSRTSDEQEQEQEQEQVQNPDTHVNNEHQQRPGPTTLLSTPVRLKNGFGTPSPPSPPGITKSITKSRRRPSTTSLQGIFMSPVNKRRVGITAHGRVYDHNDDGHESESEDDENEEENENQKKYDGHVSMPLLPPTTPKSRRSEVFLSPSPRLRSPPTAARRSTGERPIREISHTLRTRLNYALVKLQNGWTDKTLPELETELAPAVQTPPRRYHNRFPDSADAGTSAHTAFLQALGGHPPREEATAVETLMLLSSPTKKQQHRPVPATSAGEPTDETEPESDTEVETS

Source: paper doi:10.1101/2020.04.20.033787 (bioRxiv, 2020)
